According to patent US9663800B2, “Alkane exporter and its use” (Nanyang Technological University, priority 2012, dated 2017):

Tests used:
[1] = test system: ABC3 mRNA; assay: Quantitative RT-PCR of ABC3 transcripts after alkane treatment; assay type: cell-based; settings: Y. lipolytica CLIB122, 24 h alkane treated vs. untreated, normalized to actin, p<0.05
Description: (§1) FIG. 3. mRNA transcripts levels of ABC2 and ABC3 in Y. lipolytica. Quantitative RT-PCR analysis of ABC2 (A) and ABC3 (B) in Y. lipolytica cells corresponding to treatment with octane, nonane, decane, undecane and dodecane (C8-C12). Each value of qRT-PCR was normalized to β-actin expression levels and expressed as the fold change relative to the levels detected in control samples, which were cells without alkane treatment and set equal to 1. Error bars represent the SD of triplicate.
(§2) To assess whether ABC1, ABC2, ABC3 and ABC4 are involved in alkane transport in Y. lipolytica, we analysed the effects of alkanes with different chain length (C8-C12) on the transcription levels of these four ABC transporter genes using quantitative RT-PCR.
(§3) Total RNA samples from 24 h alkane treated and untreated Y. lipolytica CLIB122 cells were prepared using RNeasy Mini Kit (Qiagen), followed by cDNA synthesis using H minus Reverse transcriptase kit (Fermentas). Quantitative RT-PCR analysis was performed on a Bio-Rad iQ5 real-time PCR detection system using SsoFast EvaGreen Supermix kit (Bio-Rad). The actin gene (YALI0D08272g) was used as reference gene for Y. lipolytica. Relative mRNA levels were derived using comparative CT method.

[2] = test system: ABC2 mRNA; assay: Quantitative RT-PCR of ABC2 transcripts after alkane treatment; assay type: cell-based; settings: Y. lipolytica CLIB122, 24 h alkane treated vs. untreated, normalized to actin, p<0.05
Description: as §1, §2, §3

[3] = test system: S. cerevisiae BY4741; assay: Alkane susceptibility test in liquid culture; assay type: cell-based, Saccharomyces cerevisiae
Protocol: (§4) FIG. 2. Alkane susceptibility test for S. cerevisiae. The alkane susceptibility was tested in cells expressing ABC2/3 or with empty plasmid. (A) Alkane susceptibility test on agar plate. Serial dilutions of cells expressing ABC2/3 were spotted on agar plates with alkanes (decane, undecane) as vapour phase. Plates were incubated at 28° C. for 2 days. (B) Alkane susceptibility test in liquid culture. Overnight cell culture was diluted into induction medium (final OD600=0.4) with different alkanes (decane & undecane) concentrations. The plates were incubated for 48 hr at 28° C. The OD600 value of each sample was determined and plotted against its corresponding alkane concentration. Symbols for strains are: control sample with empty plasmid (open circle), cells expressing ABC2 (filled circle), cell expressing ABC3 (filled triangle).
Overnight culture was diluted into 5 ml induction medium in 50 ml glass bottle (Sigma) at an initial OD600 of 0.4. Alkanes were added as different final concentration. Bottles were sealed tightly with butyl rubber stopper (Sigma) and silver aluminum seal (Sigma). Liquid culture was performed at 28° C. with shaking. Growth was monitored by measuring the OD600 at different time point. Cell culture used for time point OD checking was collected from the glass bottle using needle and syringe.
To further analyze the effect of ABC2 and ABC3 toward decane and undecane, alkane susceptibility tests in liquid culture were conducted. […] With the expression of ABC2, decane tolerance was boosted about 80-fold (20% vs. 0.25% decane) and cells can survive in 20% undecane. For ABC3, decane tolerance is increased slightly by about 3-fold (0.75% vs. 0.25% decane) and cells are resistant to 20% undecane. It is apparent that the expression of ABC2 and ABC3 transporters improved the tolerance toward C10 and C11 alkanes.

[4] = test system: S. cerevisiae BY4741; assay: Intracellular alkane accumulation (GC-FID) in cells expressing ABC2/3; assay type: cell-based, Saccharomyces cerevisiae; settings: S. cerevisiae BY4741 expressing the transporter, 48 h, control with empty plasmid
Protocol: FIG. 1. Intracellular alkane accumulation by ABC2 and ABC3. S. cerevisiae BY4741 with and without ABC2/3 were cultured under exposure of 0.5% alkane or 20% undecane. After 48 h incubation, intracellular alkane levels were measured. Intracellular alkane levels were normalized to that of control carrying empty plasmid. Data shown are the mean±SD of four biological replicates.
Intracellular alkane accumulation was analysed with GC-FID after 48 h incubation with 0.5% decane or 20% undecane.
After induction for 48 h with or without addition of alkanes, S. cerevisiae cells transformed with pYES2, pYES2ABC2 and pYES2ABC3 were harvested at 6000 g for 5 min at 4° C. After washing with 50 mM Tris.Cl, cells were equally divided into two parts, one part for alkane GC analysis and the other for determination of total protein concentration. For GC analysis, cell pellets were re-suspended in freshly prepared Chloroform/Methanol (v/v, 2:1). Dodecane was added into cell suspension as an internal standard. Acid-washed glass beads were added until the suspension was covered. Cells were then lysed by mechanical agitation using FastPrep-24 (MPBio) for 6 min at 6 m/s. The crude extract was obtained by pipette. After addition of autoclaved ddH2O, the crude extract was emulsified for 10 min by inversion. After centrifuge, the crude extract was separated into two phases. The bottom phase containing alkane was transferred into a new 1.5 ml microcentrifuge tube and purified as above with HPLC grade chloroform and autoclaved ddH2O until particulate matter was no longer observable. The purified solution was transferred into a clear GC vial for GC analysis. To check the total protein concentration, Cell pellets were re-suspended into 50 mM Tris.Cl and lysed via mechanical agitation with acid-washed glass beads using FastPrep-24 for 6 min at 6 m/s. Protein concentration of obtained crude extract was determined using the Bradford protein assay (Bio-Rad). Intracellular alkane levels were normalized to internal standard and cell lysate protein content.

[5] = test system: S. cerevisiae BY4741; assay: Alkane susceptibility test on agar plate; assay type: cell-based, Saccharomyces cerevisiae; settings: cells expressing the transporter, 28° C., 2 days
Protocol: as §4
Alkane susceptibility test on plates was performed according to the methods of Mauersberger et al.. Exponentially growing cells in induction medium were centrifuged and re-suspended with induction medium at OD600=1. Ten microliter aliquots of successive 10-fold dilutions (non diluted, 10-1, 10-2, 10-3) of cells were spotted onto the induction medium plate. Medium chain alkanes were supplied as vapour phase by placing 200 μl alkane on a sterile filter paper in the lid of the petri dish. Plates were incubated at 28° C. for 2 days.
Toxicity test was implemented to study the effect of ABC2 and ABC3 on the tolerance of the cells toward alkanes. The toxic effects of alkanes on S. cerevisiae with ABC2 and ABC3 were measured through alkane susceptibility test on agar plates. […] It was observed that the expression of ABC2 would lead higher tolerance toward decane than ABC3.

Molecule	mRNA levels of ABC3 [1]	mRNA levels of ABC2 [2]	alkane concentration causing a significant decrease in viability of the control cells ([3]; control cells with empty plasmid, 48 hr, 28° C.) [%]	lower intracellular decane level relative to the control ([4]; 0.5% decane) [fold]	reduction of intracellular undecane level compared to the control sample ([4]; 20% undecane)	decane tolerance increase ([3]; cells expressing the transporter vs. control (0.25% decane), 48 hr, 28° C., OD600)	survival in 20% undecane ([3]; cells expressing the transporter, 20% undecane)	decane concentration tolerated ([3]; cells expressing the transporter, 48 hr, 28° C., control 0.25% decane) [%]	cell tolerance toward decane ([5]; decane as vapour phase)	cell tolerance toward undecane ([5]; undecane as vapour phase)
CCCCCCCCCC [decane]	significantly increased	significantly increased	0.5	–	–	–	–	–	–	–
CCCCCCCCC [nonane]	significantly increased	significantly increased	–	–	–	–	–	–	–	–
ABC3: Y. lipolytica ABC transporter, SEQ ID NO. 5, GenBank CAG82646, heterologously expressed in S. cerevisiae (protein, listed as Yarrowia lipolytica) MTDPVPITQDPTIYSSQQDAEIRSLAESIHSQHSNNSNNSTELTNPYVDTSDPELDPWSGQFNSRKWSRTILGLKRRYGTSKEITAGVSFKNLGAYGYGGGADYQKTVANAVLGLEGVVRTLFHLEKKEDKVQILSDFNGVLWPGETCVVLGRPGSGCTTLLKSIACETYGFQLDKETEWNYQGIPRKIMQKTCRGEIVYNAEVDVHFPHLTVGDTLMFASLARTPQNRFDGVTREQYAKHTRDVTMASLGLSHTLDTKVGNDFVRGVSGGERKRVSIAESIVCGSPLQCWDNSTRGLDAATATEFLRWLRHSAELTGASMFVSLYQASQEAYELFDKVTVLYEGQQIYFGPGEQAKQYFEEMGFECPHRQTTGDFLTSITSPAERIVAPGFEGKTPRTASEFAERWRQSQAYANLQEEIERFNTEFPVGGNRVADIMELKQEKQSDHIKVSSPYTISIPMQVKLCLTRGFQRLRGDLSMALTTVLGNFVVALILSSMFYNMPEDTSSFFSRGALLFFAMLMNAMSSVLEIIVLYELRPIVEKHQRYAMYHPFCEALASIICDFPTKFLTMLCVNVTLYFMSNLRREAGPFFIFFLFTLLCVLAMSMIFRTIAAVTKTLQQALAPAAVIILALIIYTGFTLPISYMRGWARWINYIDPIAYGFEAVMVNEFRNREFPCALFIPQQSTYDQLGSPYQGCMAVGAKPGERFVNGDRYLEMAFDYSQAHLWRNLGIMFGFILFFAFTYLTAVEFIQSAKSKGEVLVFLRSSLKQRKKRAHLMDVEANAEKVGAAQDREILVQQEEGQQEETSSCTPSDSTPKDIFQWKDVCYDIKVKGGEKRLLDNVDGWVKPGTLTALMGCSGAGKTTLLDVLADRKATGVITGDMRVNGQKRDASFQRKTGYVQQQDLHTATSTVREALEFSALLRQPSNVPKAEKIAYVDEVIDILEMQAYADAVVGVPGEGLNVEQRKRLTIGVELAAKPELLLFLDEPTSGLDSQTAWSIICLLKKLANRGQAILCTIHQPSAILFQEFDRLLFMTLGGKTVYYGDIGANSSALINYFESKGADPCPEEANPAEWMLAAIGAAPGSIAKHDWAVVWNESEERARERDLLDKMAEELAAQSTHDEKNELVTSKSVGSSQTSSSSYSAKSQYATSQATQLYYLTKRLWTYYWRSPRYIWSKLLMSIASALFIGFSYYKASQDIQGLQNQMFAFFMLFLIFVIIMVQILPHFVAQRELYEARERSSMAYSWQAFMGSNILVELPWQTLVAVLVFFCFYYPIGLQNNATGHLGERGALFFLLLWSFYVYNSTFAHMMGAAFENKENAATIGYLLFALCLIFCGVLATKEDMPHFWIFMYRVSPLTYLISGLLSAGVGETRVECTDNELVLFKPMNGTNCGKYMHPFMEGLGHTDMPMGYLVDPSATDMCGYCPISNTNGYLDQIDVKYSQRWRNYGILFAYPAFNVFMAFAFYYIFRVPKKSRKQKA	–	–	–	~5	approximately 30 fold	about 3 fold	resistant	0.75	considerably improved	considerably improved
